Experimental data as given in article PMC4859522.

Legend:
[1] = target: RSV clinical isolate A2001/2-20 fusion (F) protein (respiratory syncytial virus strain A2001/2-20); assay: co-IP; 293T cells co-transfected with EGFR and an RSV F construct; RIPA lysates 24 h after transfection; F precipitated with motavizumab on protein-A magnetic beads overnight at 4°C, washed in RIPA; blots for EGFR and RSV F, ratio of EGFR to F1
[2] = target: Epidermal growth factor receptor (UniProt P00533)

| Substance | fold ratio of co-precipitated EGFR to F, against A2 F [1] [fold] | ratio of p-EGFR to EGFR by Western blot in serum-starved HEp-2 cells 24 h after transfection with 2–20 F, against A2 F [2] [fold] |
| --- | --- | --- |
| Epidermal growth factor receptor (from UniProt P00533 25-1210) | 2.8 | – |
| RSV clinical isolate A2001/2-20 fusion (F) protein (natural protein) | – | 4.45 |
